# Laboratory results published in article PMC9067669, “Allostery in the dynamic coactivator domain KIX occurs through minor conformational micro-states” (PLoS Computational Biology, 2022).
# Non-standard residues stand in square brackets, D forms with d. pS = N[C@@H](COP(=O)(O)O)C(=O)O
# B1: MLL(840-858) peptide (peptide)
# peptide: Ac-DCGNILPSDIMDFVLKNTPY-NH2
# notes: mixed lineage leukemia (MLL) transcription factor peptide, printed residues 840-858; last printed letter of the peptide, beyond the 19 residues of the stated range; source: synthetic peptide (HPLC purified, reduced with DTT, 98% purity)
# B2: pKID(119-147) peptide, phosphorylated kinase-inducible domain of CREB (peptide)
# peptide: Ac-TDSQKRREILSRRP[pS]YRKILNDLSSDAPG-NH2
# SMILES: CC[C@H](C)[C@H](NC(=O)[C@H](CCCCN)NC(=O)[C@H](CCCNC(=N)N)NC(=O)[C@H](Cc1ccc(O)cc1)NC(=O)[C@H](COP(=O)(O)O)NC(=O)[C@@H]1CCCN1C(=O)[C@H](CCCNC(=N)N)NC(=O)[C@H](CCCNC(=N)N)NC(=O)[C@H](CO)NC(=O)[C@H](CC(C)C)NC(=O)[C@@H](NC(=O)[C@H](CCC(=O)O)NC(=O)[C@H](CCCNC(=N)N)NC(=O)[C@H](CCCNC(=N)N)NC(=O)[C@H](CCCCN)NC(=O)[C@H](CCC(N)=O)NC(=O)[C@H](CO)NC(=O)[C@H](CC(=O)O)NC(=O)[C@@H](NC(C)=O)[C@@H](C)O)[C@@H](C)CC)C(=O)N[C@@H](CC(C)C)C(=O)N[C@@H](CC(N)=O)C(=O)N[C@@H](CC(=O)O)C(=O)N[C@@H](CC(C)C)C(=O)N[C@@H](CO)C(=O)N[C@@H](CO)C(=O)N[C@@H](CC(=O)O)C(=O)N[C@@H](C)C(=O)N1CCC[C@H]1C(=O)NCC(N)=O
# notes: kinase-inducible domain of CREB, residues 119-147, phosphorylated; source: synthetic peptide (HPLC purified, >90% purity)
# Assays:
# [1] = target: T1, KIX domain from mouse CBP, residues 586-672 (mouse, UniProt P45481 586-672); assay: differential scanning fluorimetry (DSF); 20 uM protein with 5X SYPRO orange, incubated with 1X TAD peptide at RT for 30 minutes; 25-95°C at 1°C/min; Tm is the maximum of the first derivative, dTm the difference between protein and protein + ligand; conditions: both partners purified
# T1 construct: the pRSETB vector may add further residues beside the His tag (surmise); also called apo KIX; Apo KIX(586-672); source: E. coli BL21 DE3, purified (HisTrap Ni IMAC, Source S ion exchange)
# [2] = target: T2, KIX_(I660V) (KIX domain from mouse CBP, residues 586-672, I660V) (mouse, UniProt P45481 586-672, I660V); assay: as above; conditions: both partners purified
# T2 construct: also called mutant KIX_(I660V); K_(I660V); source: E. coli BL21 DE3, purified (HisTrap Ni IMAC, Source S ion exchange)
# T2 sequence (P45481 586-672 I660V): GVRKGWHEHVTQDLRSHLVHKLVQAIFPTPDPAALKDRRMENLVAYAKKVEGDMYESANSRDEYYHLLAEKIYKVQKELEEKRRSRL
# T1 sequence (P45481 586-672): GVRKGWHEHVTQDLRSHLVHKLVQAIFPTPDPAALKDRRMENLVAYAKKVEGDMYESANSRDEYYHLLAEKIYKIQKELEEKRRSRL
Binder,increase in TM [1] [°C],binding result [1],binding result [2]
B1,0.8,,
B2,,binds,binds
